We go through one molecule from paper PMC12311180, “Structure and mechanism of the RalGAP tumor suppressor complex” (Nature Communications, 2025).

Data set [1] concerns the molecule itself. The data set can be described thus: cryo-EM structure; RGα2/RGβ/κB-Ras2 complex from Expi293F, FLAG affinity and Superose 6 in 20 mM HEPES pH 7.5, 150 mM NaCl, 2 mM MgCl2, 1 mM TCEP; single particle analysis of the half-particle, 3.8 Å overall.
In data set [2] the target is T1, RalGAPα2 (RGα2), full length, co-expressed in Expi293F and purified by FLAG affinity (UniProt Q2PPJ7 1-1873).
T1 construct: RalGAPα2, catalytic α-subunit of the RalGAP2 complex; catalytic asparagine N1742; residues 1-73 not resolved in the map; residue numbers (N1742, R1738, N943) are used together with human patient variants; also called RGα2^fl; source: Expi293F cells, transfected, purified (M2 anti-FLAG beads, 3xFLAG peptide elution; Superose 6 for cryo-EM)
T1 sequence (Q2PPJ7 whole entry, the tested form may be a part): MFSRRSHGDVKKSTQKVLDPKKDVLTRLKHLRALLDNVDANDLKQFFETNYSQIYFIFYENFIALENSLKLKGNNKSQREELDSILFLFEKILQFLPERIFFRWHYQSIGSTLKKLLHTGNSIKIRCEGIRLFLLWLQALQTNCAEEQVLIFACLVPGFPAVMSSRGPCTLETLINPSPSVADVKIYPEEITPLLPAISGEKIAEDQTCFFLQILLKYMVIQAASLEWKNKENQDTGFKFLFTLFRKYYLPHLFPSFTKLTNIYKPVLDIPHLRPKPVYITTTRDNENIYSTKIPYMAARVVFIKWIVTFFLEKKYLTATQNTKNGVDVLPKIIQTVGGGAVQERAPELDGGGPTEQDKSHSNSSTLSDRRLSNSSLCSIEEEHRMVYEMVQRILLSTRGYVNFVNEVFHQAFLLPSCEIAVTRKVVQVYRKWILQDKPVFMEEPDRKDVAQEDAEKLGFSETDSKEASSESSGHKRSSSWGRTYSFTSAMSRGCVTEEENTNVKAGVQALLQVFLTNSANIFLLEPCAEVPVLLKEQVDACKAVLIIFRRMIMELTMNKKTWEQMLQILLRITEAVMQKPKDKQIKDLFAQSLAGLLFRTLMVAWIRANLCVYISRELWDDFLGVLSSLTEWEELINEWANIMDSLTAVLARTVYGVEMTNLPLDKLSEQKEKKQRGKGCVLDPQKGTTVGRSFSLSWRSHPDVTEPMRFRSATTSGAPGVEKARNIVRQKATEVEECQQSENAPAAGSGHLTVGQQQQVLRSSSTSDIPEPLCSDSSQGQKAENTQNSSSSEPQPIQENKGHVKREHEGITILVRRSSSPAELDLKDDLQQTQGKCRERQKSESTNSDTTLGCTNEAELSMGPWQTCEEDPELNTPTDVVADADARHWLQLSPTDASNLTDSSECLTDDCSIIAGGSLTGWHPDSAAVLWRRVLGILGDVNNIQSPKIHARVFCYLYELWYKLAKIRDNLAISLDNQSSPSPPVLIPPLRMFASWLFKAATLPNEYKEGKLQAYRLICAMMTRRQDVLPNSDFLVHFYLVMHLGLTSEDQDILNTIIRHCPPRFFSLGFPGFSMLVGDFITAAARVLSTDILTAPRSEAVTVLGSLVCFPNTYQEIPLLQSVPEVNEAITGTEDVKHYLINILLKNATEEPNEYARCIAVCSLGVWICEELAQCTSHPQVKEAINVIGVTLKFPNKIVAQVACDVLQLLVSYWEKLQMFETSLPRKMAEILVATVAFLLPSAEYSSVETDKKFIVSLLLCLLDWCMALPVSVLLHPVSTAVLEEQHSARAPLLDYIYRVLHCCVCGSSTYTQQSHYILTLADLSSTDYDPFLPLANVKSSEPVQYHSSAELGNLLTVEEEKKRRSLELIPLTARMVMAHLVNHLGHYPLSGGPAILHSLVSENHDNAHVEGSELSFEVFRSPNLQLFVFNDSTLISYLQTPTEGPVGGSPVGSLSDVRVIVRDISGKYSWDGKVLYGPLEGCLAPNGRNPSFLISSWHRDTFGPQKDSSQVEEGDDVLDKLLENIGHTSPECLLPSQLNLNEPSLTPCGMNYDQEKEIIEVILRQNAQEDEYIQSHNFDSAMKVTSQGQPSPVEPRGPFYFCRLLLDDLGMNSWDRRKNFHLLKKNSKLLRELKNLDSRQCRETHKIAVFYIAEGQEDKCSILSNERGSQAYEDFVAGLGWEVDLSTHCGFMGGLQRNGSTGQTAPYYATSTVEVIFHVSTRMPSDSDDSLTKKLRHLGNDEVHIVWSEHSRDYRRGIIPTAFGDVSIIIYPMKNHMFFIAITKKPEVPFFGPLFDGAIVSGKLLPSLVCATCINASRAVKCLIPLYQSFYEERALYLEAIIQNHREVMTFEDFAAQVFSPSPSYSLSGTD
The description is as above. Conditions: both partners purified.

B1: RalGAPβ (RGβ), full length, co-expressed in Expi293F and co-purified with FLAG-RGα2 (natural protein, UniProt Q86X10 1-1494, looked up)
chain: MYSEWRSLHLVIQNDQGHTSVLHSYPESVGREVANAVVRPLGQVLGTPSVAGSENLLKTDKEVKWTMEVICYGLTLPLDGETVKYCVDVYTDWIMALVLPKDSIPLPVIKEPNQYVQTILKHLQNLFVPRQEQGSSQIRLCLQVLRAIQKLARESSLMARETWEVLLLFLLQINDILLAPPTVQGGIAENLAEKLIGVLFEVWLLACTRCFPTPPYWKTAKEMVANWRHHPAVVEQWSKVICALTSRLLRFTYGPSFPAFKVPDEDASLIPPEMDNECVAQTWFRFLHMLSNPVDLSNPAIISSTPKFQEQFLNVSGMPQELNQYPCLKHLPQIFFRAMRGISCLVDAFLGISRPRSDSAPPTPVNRLSMPQSAAVSTTPPHNRRHRAVTVNKATMKTSTVSTAHASKVQHQTSSTSPLSSPNQTSSEPRPLPAPRRPKVNSILNLFGSWLFDAAFVHCKLHNGINRDSSMTAITTQASMEFRRKGSQMSTDTMVSNPMFDASEFPDNYEAGRAEACGTLCRIFCSKKTGEEILPAYLSRFYMLLIQGLQINDYVCHPVLASVILNSPPLFCCDLKGIDVVVPYFISALETILPDRELSKFKSYVNPTELRRSSINILLSLLPLPHHFGTVKSEVVLEGKFSNDDSSSYDKPITFLSLKLRLVNILIGALQTETDPNNTQMILGAMLNIVQDSALLEAIGCQMEMGGGENNLKSHSRTNSGISSASGGSTEPTTPDSERPAQALLRDYALNTDSAAGLLIRSIHLVTQRLNSQWRQDMSISLAALELLSGLAKVKVMVDSGDRKRAISSVCTYIVYQCSRPAPLHSRDLHSMIVAAFQCLCVWLTEHPDMLDEKDCLKEVLEIVELGISGSKSKNNEQEVKYKGDKEPNPASMRVKDAAEATLTCIMQLLGAFPSPSGPASPCSLVNETTLIKYSRLPTINKHSFRYFVLDNSVILAMLEQPLGNEQNDFFPSVTVLVRGMSGRLAWAQQLCLLPRGAKANQKLFVPEPRPVPKNDVGFKYSVKHRPFPEEVDKIPFVKADLSIPDLHEIVTEELEERHEKLRSGMAQQIAYEIHLEQQSEEELQKRSFPDPVTDCKPPPPAQEFQTARLFLSHFGFLSLEALKEPANSRLPPHLIALDSTIPGFFDDIGYLDLLPCRPFDTVFIFYMKPGQKTNQEILKNVESSRTVQPHFLEFLLSLGWSVDVGRHPGWTGHVSTSWSINCCDDGEGSQQEVISSEDIGASIFNGQKKVLYYADALTEIAFVVPSPVESLTDSLESNISDQDSDSNMDLMPGILKQPSLTLELFPNHTDNLNSSQRLSPSSRMRKLPQGRPVPPLGPETRVSVVWVERYDDIENFPLSELMTEISTGVETTANSSTSLRSTTLEKEVPVIFIHPLNTGLFRIKIQGATGKFNMVIPLVDGMIVSRRALGFLVRQTVINICRRKRLESDSYSPPHVRRKQKITDIVNKYRNKQLEPEFYTSLFQEVGLKNCSS
notes: RalGAPβ, common regulatory β-subunit of the RalGAP complexes; In the RalGAP tetramer two RGα2/RGβ heterodimers are joined by two RGβ; also called RGβ^fl; RGβ^WT; source: Expi293F cells, transfected, co-purified with RGα2 (M2 anti-FLAG beads; Superose 6 for cryo-EM)
Turning to B1, the binding result in data set [1] and in data set [2] was “binds” throughout.
